Laboratory results taken from patent publication US20250388669A1 (published 2025).

B1: Ly2396 (bispecific antibody, human IgG1, kappa)
chain 1: QVTLKESGPALVKPTQTLTLTCTFSGFSLSTSGTCVSWIRQPPGKALEWLATICWEDSKGYNPSLKSRLTISKDTSKNQAVLTMTNMDPVDTATYYCARREDSGYFWFPYWGQGTLVTVSSASTKGPSVFPLAPSSKSTSGGTAALGCLVKDYFPEPVTVSWNSGALTSGVHTFPAVLQSSGLYSLSSVVTVPSSSLGTQTYICNVNHKPSNTKVDKKVEPKSCDKTHTCPPCPAPEAAGPSVFLFPPKPKDTLMISRTPEVTCVVVDVSHEDPEVKFNWYVDGVEVHNAKTKPREEQYNSTYRVVSVLTVLHQDWLNGKEYKCKVSNKALPAPIEKTISKAKGQPREPQVYTLPPSREEMTKNQVSLWCLVKGFYPSDIAVEWESNGQPENNYKTTPPVLDSDGSFFLYSKLTVDKSRWQQGNVFSCSVMHEALHNHYTQKSLSLSPGGGGGSGGGGSGGGGSGGGGSQVQLVQSGAEVKKPGASVKVSCKASGYTFAGFEMHWVRQAPGQGLEWMGAIDPKTGGTDYNQKFKDRVTMTRDTSISTAYMELSRLRSDDTAVYYCARDLGYFDVWGQGTLVTVSS
chain 2: QVTLKESGPALVKPTQTLTLTCTFSGFSLSTSGTCVSWIRQPPGKALEWLATICWEDSKGYNPSLKSRLTISKDTSKNQAVLTMTNMDPVDTATYYCARREDSGYFWFPYWGQGTLVTVSSASTKGPSVFPLAPSSKSTSGGTAALGCLVKDYFPEPVTVSWNSGALTSGVHTFPAVLQSSGLYSLSSVVTVPSSSLGTQTYICNVNHKPSNTKVDKKVEPKSCDKTHTCPPCPAPEAAGPSVFLFPPKPKDTLMISRTPEVTCVVVDVSHEDPEVKFNWYVDGVEVHNAKTKPREEQYNSTYRVVSVLTVLHQDWLNGKEYKCKVSNKALPAPIEKTISKAKGQPREPQVYTLPPSREEMTKNQVSLSCAVKGFYPSDIAVEWESNGQPENNYKTTPPVLDSDGSFFLVSKLTVDKSRWQQGNVFSCSVMHEALHNRFTQKSLSLSPGGGGGSGGGGSGGGGSGGGGSDIQMTQSPSSLSASVGDRVTITCRASQDIRSNLNWYQQKPGGAVKLLIYYTSRLHSGVPSRFSGSGSGTDYTLTISSLQPEDFATYFCQQSEKLPRTFGGGTKVEIR
light: NIQMTQSPSSLSASVGDRVTITCKAGQNVNNYLAWYQQKPGKAPKVLIFNANSLQTGVPSRFSGSGSGTDFTLTISSLQPEDFATYYCQQYNSWPTFGGGTKVEIKRTVAAPSVFIFPPSDEQLKSGTASVVCLLNNFYPREAKVQWKVDNALQSGNSQESVTEQDSKDSTYSLSSTLTLSKADYEKHKVYACEVTHQGLSSPVTKSFNRGEC
notes: PD-1/CD137: two PD-1 Fabs, terminal CD137 Fv
B2: Ly2409 (bispecific antibody)
chain 1: QVTLKESGPALVKPTQTLTLTCTFSGFSLSTSGTCVSWIRQPPGKALEWLATICWEDSKGYNPSLKSRLTISKDTSKNQAVLTMTNMDPVDTATYYCARREDSGYFWFPYWGQGTLVTVSSASTKGPSVFPLAPSSKSTSGGTAALGCLVKDYFPEPVTVSWNSGALTSGVHTFPAVLQSSGLYSLSSVVTVPSSSLGTQTYICNVNHKPSNTKVDKKVEPKSCGGGGSGGGGSGGGGSGGGGSEVQLVESGGGLVQPGGSLRLSCAASGFTFTNYGLHWVRQAPGKGLEWVSSISPSGGVTYYRDSVKGRFTISRDNSKNTLYLQMNSLRAEDTAVYYCAKPFLGWGGANWIAHWGQGTLVTVSSGGGGSDKTHTCPPCPAPEAAGPSVFLFPPKPKDTLMISRTPEVTCVVVDVSHEDPEVKFNWYVDGVEVHNAKTKPREEQYNSTYRVVSVLTVLHQDWLNGKEYKCKVSNKALPAPIEKTISKAKGQPREPQVYTLPPSREEMTKNQVSLWCLVKGFYPSDIAVEWESNGQPENNYKTTPPVLDSDGSFFLYSKLTVDKSRWQQGNVFSCSVMHEALHNHYTQKSLSLSPG
chain 2: QVTLKESGPALVKPTQTLTLTCTFSGFSLSTSGTCVSWIRQPPGKALEWLATICWEDSKGYNPSLKSRLTISKDTSKNQAVLTMTNMDPVDTATYYCARREDSGYFWFPYWGQGTLVTVSSASTKGPSVFPLAPSSKSTSGGTAALGCLVKDYFPEPVTVSWNSGALTSGVHTFPAVLQSSGLYSLSSVVTVPSSSLGTQTYICNVNHKPSNTKVDKKVEPKSCGGGGSGGGGSGGGGSGGGGSDIQMTQSPSSLSASVGDRVTITCLASEDISNDLAWYQQKPGKAPKLLIYFVDRLLDGVPSRFSGSGSGTDFTLTISSLQPEDFATYYCQQSYKYPPTFGQGTKLEIKGGGGSDKTHTCPPCPAPEAAGPSVFLFPPKPKDTLMISRTPEVTCVVVDVSHEDPEVKFNWYVDGVEVHNAKTKPREEQYNSTYRVVSVLTVLHQDWLNGKEYKCKVSNKALPAPIEKTISKAKGQPREPQVYTLPPSREEMTKNQVSLSCAVKGFYPSDIAVEWESNGQPENNYKTTPPVLDSDGSFFLVSKLTVDKSRWQQGNVFSCSVMHEALHNRFTQKSLSLSPG
light: B1 light
notes: PD-1/CD40: two PD-1 Fabs, central CD40 Fv (TM559)
B3: Ly2405 (bispecific antibody, human IgG1, kappa)
chain 1: not shown
chain 2: QVTLKESGPALVKPTQTLTLTCTFSGFSLSTSGTCVSWIRQPPGKALEWLATICWEDSKGYNPSLKSRLTISKDTSKNQAVLTMTNMDPVDTATYYCARREDSGYFWFPYWGQGTLVTVSSASTKGPSVFPLAPSSKSTSGGTAALGCLVKDYFPEPVTVSWNSGALTSGVHTFPAVLQSSGLYSLSSVVTVPSSSLGTQTYICNVNHKPSNTKVDKKVEPKSCDKTHTCPPCPAPEAAGPSVFLFPPKPKDTLMISRTPEVTCVVVDVSHEDPEVKFNWYVDGVEVHNAKTKPREEQYNSTYRVVSVLTVLHQDWLNGKEYKCKVSNKALPAPIEKTISKAKGQPREPQVYTLPPSREEMTKNQVSLSCAVKGFYPSDIAVEWESNGQPENNYKTTPPVLDSDGSFFLVSKLTVDKSRWQQGNVFSCSVMHEALHNRFTQKSLSLSPGGGGGSGGGGSGGGGSGGGGSDIQMTQSPSSVSASVGDRVTITCRASQGIYSWLAWYQQKPGKAPNLLIYTASTLQSGVPSRFSGSGSGTDFTLTISSLQPEDFATYYCQQANIFPLTFGGGTKVEIK
light: B1 light
notes: PD-1/CD40: two PD-1 Fabs, terminal CD40 Fv (TM383)
B4: Ly2280 (bispecific antibody)
chain 1: not shown
chain 2: QVTLKESGPALVKPTQTLTLTCTFSGFSLSTSGTCVSWIRQPPGKALEWLATICWEDSKGYNPSLKSRLTISKDTSKNQAVLTMTNMDPVDTATYYCARREDSGYFWFPYWGQGTLVTVSSASTKGPSVFPLAPSSKSTSGGTAALGCLVKDYFPEPVTVSWNSGALTSGVHTFPAVLQSSGLYSLSSVVTVPSSSLGTQTYICNVNHKPSNTKVDKKVEPKSCGGGGSGGGGSGGGGSGGGGSDIQMTQSPSSVSASVGDRVTITCRASQGIYSWLAWYQQKPGKAPNLLIYTASTLQSGVPSRFSGSGSGTDFTLTISSLQPEDFATYYCQQANIFPLTFGGGTKVEIKGGGGSDKTHTCPPCPAPEAAGPSVFLFPPKPKDTLMISRTPEVTCVVVDVSHEDPEVKFNWYVDGVEVHNAKTKPREEQYNSTYRVVSVLTVLHQDWLNGKEYKCKVSNKALPAPIEKTISKAKGQPREPQVYTLPPSREEMTKNQVSLSCAVKGFYPSDIAVEWESNGQPENNYKTTPPVLDSDGSFFLVSKLTVDKSRWQQGNVFSCSVMHEALHNRFTQKSLSLSPG
light: B1 light
notes: PD-1/CD40: two PD-1 Fabs, central CD40 Fv (TM383)
B5: Ly2415 (bispecific antibody, human IgG1, kappa)
chain 1: QVTLKESGPALVKPTQTLTLTCTFSGFSLSTSGTCVSWIRQPPGKALEWLATICWEDSKGYNPSLKSRLTISKDTSKNQAVLTMTNMDPVDTATYYCARREDSGYFWFPYWGQGTLVTVSSASTKGPSVFPLAPSSKSTSGGTAALGCLVKDYFPEPVTVSWNSGALTSGVHTFPAVLQSSGLYSLSSVVTVPSSSLGTQTYICNVNHKPSNTKVDKKVEPKSCDKTHTCPPCPAPEAAGPSVFLFPPKPKDTLMISRTPEVTCVVVDVSHEDPEVKFNWYVDGVEVHNAKTKPREEQYNSTYRVVSVLTVLHQDWLNGKEYKCKVSNKALPAPIEKTISKAKGQPREPQVYTLPPSREEMTKNQVSLWCLVKGFYPSDIAVEWESNGQPENNYKTTPPVLDSDGSFFLYSKLTVDKSRWQQGNVFSCSVMHEALHNHYTQKSLSLSPGGGGGSGGGGSGGGGSGGGGSEVQLVESGGGLVQPGGSLRLSCAASGFTFTNYGLHWVRQAPGKGLEWVSSISPSGGVTYYRDSVKGRFTISRDNSKNTLYLQMNSLRAEDTAVYYCAKPFLGWGGANWIAHWGQGTLVTVSS
chain 2: QVTLKESGPALVKPTQTLTLTCTFSGFSLSTSGTCVSWIRQPPGKALEWLATICWEDSKGYNPSLKSRLTISKDTSKNQAVLTMTNMDPVDTATYYCARREDSGYFWFPYWGQGTLVTVSSASTKGPSVFPLAPSSKSTSGGTAALGCLVKDYFPEPVTVSWNSGALTSGVHTFPAVLQSSGLYSLSSVVTVPSSSLGTQTYICNVNHKPSNTKVDKKVEPKSCDKTHTCPPCPAPEAAGPSVFLFPPKPKDTLMISRTPEVTCVVVDVSHEDPEVKFNWYVDGVEVHNAKTKPREEQYNSTYRVVSVLTVLHQDWLNGKEYKCKVSNKALPAPIEKTISKAKGQPREPQVYTLPPSREEMTKNQVSLSCAVKGFYPSDIAVEWESNGQPENNYKTTPPVLDSDGSFFLVSKLTVDKSRWQQGNVFSCSVMHEALHNRFTQKSLSLSPGGGGGSGGGGSGGGGSGGGGSDIQMTQSPSSLSASVGDRVTITCLASEDISNDLAWYQQKPGKAPKLLIYFVDRLLDGVPSRFSGSGSGTDFTLTISSLQPEDFATYYCQQSYKYPPTFGQGTKLEIK
light: B1 light
notes: PD-1/CD40: two PD-1 Fabs, terminal CD40 Fv (TM559)
B6: Ly2326 (bispecific antibody, human IgG1, kappa)
chain 1: QVQLQQSGAELVRPGSSVKISCKASGYAFSSYWMNWVKQRPGQGLEWIGQIWPGDGDTNYNGKFKGKATLTADESSSTAYMQLSSLASEDSAVYFCARRETTTVGRYYYAMDYWGQGTTVTVSSASTKGPSVFPLAPSSKSTSGGTAALGCLVKDYFPEPVTVSWNSGALTSGVHTFPAVLQSSGLYSLSSVVTVPSSSLGTQTYICNVNHKPSNTKVDKKVEPKSCDKTHTCPPCPAPEAAGPSVFLFPPKPKDTLMISRTPEVTCVVVDVSHEDPEVKFNWYVDGVEVHNAKTKPREEQYNSTYRVVSVLTVLHQDWLNGKEYKCKVSNKALPAPIEKTISKAKGQPREPQVYTLPPSREEMTKNQVSLWCLVKGFYPSDIAVEWESNGQPENNYKTTPPVLDSDGSFFLYSKLTVDKSRWQQGNVFSCSVMHEALHNHYTQKSLSLSPGGGGGSGGGGSGGGGSGGGGSQVQLVQSGAEVKKPGASVKVSCKASGYTFAGFEMHWVRQAPGQGLEWMGAIDPKTGGTDYNQKFKDRVTMTRDTSISTAYMELSRLRSDDTAVYYCARDLGYFDVWGQGTLVTVSS
chain 2: QVQLQQSGAELVRPGSSVKISCKASGYAFSSYWMNWVKQRPGQGLEWIGQIWPGDGDTNYNGKFKGKATLTADESSSTAYMQLSSLASEDSAVYFCARRETTTVGRYYYAMDYWGQGTTVTVSSASTKGPSVFPLAPSSKSTSGGTAALGCLVKDYFPEPVTVSWNSGALTSGVHTFPAVLQSSGLYSLSSVVTVPSSSLGTQTYICNVNHKPSNTKVDKKVEPKSCDKTHTCPPCPAPEAAGPSVFLFPPKPKDTLMISRTPEVTCVVVDVSHEDPEVKFNWYVDGVEVHNAKTKPREEQYNSTYRVVSVLTVLHQDWLNGKEYKCKVSNKALPAPIEKTISKAKGQPREPQVYTLPPSREEMTKNQVSLSCAVKGFYPSDIAVEWESNGQPENNYKTTPPVLDSDGSFFLVSKLTVDKSRWQQGNVFSCSVMHEALHNRFTQKSLSLSPGGGGGSGGGGSGGGGSGGGGSDIQMTQSPSSLSASVGDRVTITCRASQDIRSNLNWYQQKPGGAVKLLIYYTSRLHSGVPSRFSGSGSGTDYTLTISSLQPEDFATYFCQQSEKLPRTFGGGTKVEIR
light: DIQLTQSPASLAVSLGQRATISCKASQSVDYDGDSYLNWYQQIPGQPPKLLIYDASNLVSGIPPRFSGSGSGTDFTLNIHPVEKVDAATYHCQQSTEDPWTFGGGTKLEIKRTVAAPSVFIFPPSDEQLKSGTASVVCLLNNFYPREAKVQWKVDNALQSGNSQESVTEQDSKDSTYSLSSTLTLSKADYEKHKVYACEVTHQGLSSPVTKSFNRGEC
notes: CD19/CD137: two CD19 Fabs, terminal CD137 Fv

These binders were tested against T1, PD-1 (human, UniProt Q15116 25-167, limits assumed) (assay: FCM or ELISA).
T1 construct: The reporter assay used Jurkat T cells expressing human PD-1
T1 sequence (Q15116 25-167 limits assumed): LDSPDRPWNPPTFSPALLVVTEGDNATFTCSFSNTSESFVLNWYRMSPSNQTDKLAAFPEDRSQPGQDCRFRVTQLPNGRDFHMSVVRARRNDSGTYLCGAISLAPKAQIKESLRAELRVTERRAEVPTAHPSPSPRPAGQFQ

Row | Binder | binding result
1 | B1 | binds
2 | B2 | binds
3 | B3 | binds
4 | B4 | binds
5 | B5 | binds

These binders were tested against T2, CD137 (human, UniProt Q07011 24-186) (assay: CD137 binding by FCM or ELISA).
T2 construct: Reporter assays used GS-H2-huCD137 cells expressing human CD137; also called 4-1BB/CD137; huCD137

Row | Binder | binding result
6 | B6 | binds
